What all share (experiment): SPR, ProteOn XPR36, 25 C; mAb captured on anti-Fc surface, ST2L-D1D2 (HH-ST2L) variant injected; 1:1 model
(Surface plasmon resonance follows binding to a sensor surface in real time, without labels.)

Experiment [1] has as its target T1, K55E.
T1 construct: also called HH-ST2L (ST2L-D1D2) variant K55E
T1 receptor fragment (Domains I and II): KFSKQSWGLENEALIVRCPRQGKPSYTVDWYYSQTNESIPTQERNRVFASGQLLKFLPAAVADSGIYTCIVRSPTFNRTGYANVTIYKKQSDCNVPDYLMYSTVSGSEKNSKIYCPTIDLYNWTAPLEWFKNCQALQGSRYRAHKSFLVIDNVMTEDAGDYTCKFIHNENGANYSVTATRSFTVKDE
The method, then:
(§1) Binding studies were performed using the ProteOn XPR36 Protein Interaction Array system (Bio-Rad) (Bravman T, et al. Anal Biochem 358:281-288, 2006). […] Individual anti-ST2L mAb was then captured by flowing (1 μg/mL) antibody solution prepared in PBS containing 0.5% Nonidet P-40 and 0.5% Na-deoxycholate). The signal in the surfaces reached ˜250 resonance units (RU, 1 RU=1 pg protein/mm²) in the anti-Fc-coated surfaces, confirming that these antibodies specifically capture anti-ST2L mAbs. After 90° rotation of the fluid system, wild type of ST2L-D1D2 or variant proteins (0.5 mg/mL in PBS containing 0.5% Nonidet P-40 and 0.5% Na-deoxycholate) was injected in the parallel flow channels. All of these assays were performed at 25° C. The ST2L-D1D2-dependent signals on the surfaces were obtained by double referencing, subtracting the response observed on surfaces immobilizing the antibodies alone, and the signal observed injecting the vehicle alone (which allows correction for binding-independent responses). The resulting sensorgrams were fitted by the simplest 1:1 interaction model (ProteOn analysis software), to obtain the corresponding association and dissociation rate constants (kₐ and kd).

For experiment [2], the target named is T2, E61K.
T2 construct: also called HH-ST2L (ST2L-D1D2) variant E61K
T2 receptor fragment (Domains I and II): T1 receptor fragment (Domains I and II) with E37K, E43K
The method, then:
as §1

Experiment [3] has as its target T3, HH-ST2L variant 93NL94 (substitution 93TF94 to 93NL94) (human, UniProt Q01638 19-205).
T3 chain: T1 receptor fragment (Domains I and II) with E37K, T75N, F76L
The method, then:
as §1

Experiment [4] addresses T4, 108QSD110-->PPS.
T4 receptor fragment (Domains I and II): T1 receptor fragment (Domains I and II) with E37K, Q90P, S91P, D92S
The method, then:
as §1

Experiment [5] has as its target T5, A78R.
T5 construct: also called HH-ST2L (ST2L-D1D2) variant A78R
T5 receptor fragment (Domains I and II): T1 receptor fragment (Domains I and II) with E37K, A60R
The method, then:
as §1

Experiment [6] addresses T6, A80E.
T6 construct: also called HH-ST2L (ST2L-D1D2) variant A80E
T6 receptor fragment (Domains I and II): T1 receptor fragment (Domains I and II) with E37K, A62E
The method, then: as §1

Experiment [7] addresses T7, 69GQL71-->RDR.
T7 construct: also called HH-ST2L (ST2L-D1D2) variant with 69GQL71 changed to RDR
T7 receptor fragment (Domains I and II): T1 receptor fragment (Domains I and II) with E37K, G51R, Q52D, L53R
The method, then:
as §1

The Kd is a measure of binding affinity in units of concentration. A lower Kd goes with a tighter complex. Usually koff stands for a measure of how fast the partners let go of each other. Read a high koff as fast dissociation. Broadly, the kon is a measure of how fast the partners come together.

Residue numbers refer to the chain shown, from its start.

B1: STLM208 (antibody, V domains shown)
VH: EVQLLESGGGLVQPGGSLRLSCAASGFTFSIYDMIWVRQAPGKGLEWVSSIRGEGGGTYYADSVKGRFTISRDNSKNTLYLQMNSLRAEDTAVYYCARDPWSTEGSFFVLDYWGQGTLVTVSS
VL: EIVLTQSPATLSLSPGERATLSCRASQSVDDDLAWYQQKPGQAPRLLIYDASNRATGIPARFSGSGSGTDFTLTISSLEPEDFAVYYCQQYITAPLTFGQGTKVEIK
notes: frameworks VH3-23 / Vk-L6
Take B1: the Kd turned out to be 0.01 nM in experiment [1]; 0.0081 nM in experiment [2]; 0.01 nM in experiment [4]; 0.0104 nM in experiment [5]; 0.011 nM in experiment [6]; 0.0096 nM in experiment [7]. Further, the koff in experiment [1] stood at 0.000129 s⁻¹; in experiment [2] it was 0.000126 s⁻¹; in experiment [3] it was 0.000625 s⁻¹; in experiment [4] it was 0.000119 s⁻¹; in experiment [5] it was 0.00013 s⁻¹; in experiment [6], 0.000127 s⁻¹. The molecule also showed a koff in experiment [7] of 9.27e-05 s⁻¹. Besides, the kon was 1.26e+07 M⁻¹ s⁻¹ in experiment [1]; 1.55e+07 M⁻¹ s⁻¹ in experiment [2]; 1.27e+07 M⁻¹ s⁻¹ in experiment [3]; 1.28e+07 M⁻¹ s⁻¹ in experiment [4]; 1.24e+07 M⁻¹ s⁻¹ in experiment [5]; 1.15e+07 M⁻¹ s⁻¹ in experiment [6]. The kon in experiment [7] came to 1.02e+07 M⁻¹ s⁻¹.

For the origin of these results see patent US20170066831A1 (Janssen / Centocor, published 2017).
